Data as given in PMC3548456.

Molecular target: CI-MPR domains 10-13, receptor construct 1288 (wild-type IGF-II binding domain) (human) (UniProt P11717)
Experiment: SPR

Chain of CI-MPR domains 10-13, receptor construct 1288 (wild-type IGF-II binding domain) (human) (P11717 1363-1988): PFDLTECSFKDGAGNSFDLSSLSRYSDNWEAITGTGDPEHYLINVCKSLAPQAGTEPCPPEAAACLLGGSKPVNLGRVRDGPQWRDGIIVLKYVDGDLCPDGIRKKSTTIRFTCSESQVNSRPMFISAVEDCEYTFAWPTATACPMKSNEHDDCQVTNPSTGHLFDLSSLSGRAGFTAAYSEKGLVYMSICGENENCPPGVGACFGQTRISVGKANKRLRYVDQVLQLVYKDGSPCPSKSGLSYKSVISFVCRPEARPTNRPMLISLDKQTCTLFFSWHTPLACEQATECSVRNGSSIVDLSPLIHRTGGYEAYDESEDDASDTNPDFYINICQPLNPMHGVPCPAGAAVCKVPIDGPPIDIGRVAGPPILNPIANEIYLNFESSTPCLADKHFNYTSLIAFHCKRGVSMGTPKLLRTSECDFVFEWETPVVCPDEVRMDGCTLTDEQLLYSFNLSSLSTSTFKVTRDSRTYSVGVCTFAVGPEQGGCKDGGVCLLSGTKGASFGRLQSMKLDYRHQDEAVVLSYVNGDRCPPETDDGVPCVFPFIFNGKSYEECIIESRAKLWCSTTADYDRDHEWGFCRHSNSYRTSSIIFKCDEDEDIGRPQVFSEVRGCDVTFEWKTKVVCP

Substance	Kd [nM]	koff [s⁻¹]
GILT-tagged GAA (BMN 701) (from UniProt P01344 32-91; P10253 70-952) (enzyme)	21	0.0058
full-length recombinant IGF-II (ligand)	8.8	0.0034
